Laboratory results from PMC5346706, “Anti-metastatic effect of the TM4SF5-specific peptide vaccine and humanized monoclonal antibody on colon cancer in a mouse lung metastasis model” (Oncotarget, 2016).

Legend:
[1] = biological target: cyclic peptide hTM4SF5EC2-C (human); assay: SPR; biotinylated peptide immobilized on a streptavidin chip, increasing amounts of antibody applied; SR7500DC Reichert SPR system
[2] = biological target: T1, Myc-tagged recombinant human TM4SF5 protein (Homo sapiens (Huh-7 cDNA), UniProt O14894); assay: western blotting; whole cell lysates of HEK 293F-EV and HEK 293F-TM4SF5 cells resolved on SDS-PAGE and probed with the antibody; settings: one partner purified
T1 construct: human transmembrane 4 superfamily member 5 protein (TM4SF5); cDNA amplified from Huh-7 mRNA with the printed primers (5' primer holds the ATG); also called Myc-tagged hTM4SF5; hTM4SF5
T1 sequence (O14894 whole entry): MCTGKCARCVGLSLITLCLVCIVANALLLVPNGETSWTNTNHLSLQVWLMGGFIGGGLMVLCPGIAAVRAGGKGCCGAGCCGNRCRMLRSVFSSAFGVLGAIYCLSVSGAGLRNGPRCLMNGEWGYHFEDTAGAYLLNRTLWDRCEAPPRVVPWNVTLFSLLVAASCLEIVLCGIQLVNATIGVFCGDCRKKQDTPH

B1: mouse anti-TM4SF5 monoclonal antibody mEC2-C (antibody, V domains shown)
VH: QVQLEESGPGLVAPSQSLSIICTVSGFSLTSYGVTWVRQPPGKGLEWLGVIWSDGSTNYQSALISRLTISRDNSKSQAFLKLNSLQTDDTATYYCARPSNYYYFDYWGQGTTLTVSS
VL: DIVMTQSPSSLAVSAGERVTLSCKSSQSLFDRRTRKTYLAWYQQKPGQSPKLLISWASTRESGVPDRFTGSGSGTDFTLTISSVQAEDLAVYYCKQSYNLFTFGGGTKLEIK
notes: VH of mEC2-C (mouse VH2 subtype); mouse IgG3 heavy chain constant region; VL of mEC2-C (mouse Vk8 subtype); mouse kappa light chain constant region (cloned with kappa chain primers); Mouse IgG3, kappa; also called mEC2-2; source: hybridoma, purified from ascitic fluid (Protein A column)
Question: B1 was tested. Which Kd [1] did it give?
Answer: < 0.48 nM

Question: What about the koff [1] of the same binder?
Answer: < 1e-05 s⁻¹

Question: Does B1 bind [2]?
Answer: binds
